# Results taken from the supplement of paper PMC9112550, “Optimization of the antimicrobial peptide Bac7 by deep mutational scanning” (BMC Biology, 2022).
# Tested on: Escherichia coli TOP10
# Assay: shrunken log2 fold change of peptide-encoding DNA abundance (4.5 h post-induction vs induction); higher = less antimicrobial activity (less host growth inhibition)
# Conditions: time post-induction: 4.5 h; library: site-saturation at positions 5, 18, 19, 20
# 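Further: peptides expressed intracellularly from a pBAD plasmid library in pooled LB shake-flask culture, induced with 0.3% L-arabinose, DNA abundance read by NGS, three biological replicates, DESeq2 with apeglm shrinkage.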
row,Sequence,shrunken log2 fold change
1,RRIRNRPPRLPRPRPRPIHLPRP,-0.73
2,RRIRSRPPRLPRPRPRPNHPPRP,-0.0712
3,RRIRCRPPRLPRPRPRPIMCPRP,0.0272
4,RRIRVRPPRLPRPRPRPWIQPRP,0.0857
5,RRIRPRPPRLPRPRPRPTYHPRP,-0.274
6,RRIRWRPPRLPRPRPRPRCSPRP,0.362
7,RRIRPRPPRLPRPRPRPVIVPRP,-0.212
8,RRIRPRPPRLPRPRPRPHWFPRP,0.0501
9,RRIRSRPPRLPRPRPRPKNIPRP,-0.314
10,RRIRLRPPRLPRPRPRPPLNPRP,0.0486
11,RRIRERPPRLPRPRPRPYKAPRP,-0.123
12,RRIRQRPPRLPRPRPRPFNSPRP,-0.3
13,RRIRKRPPRLPRPRPRPFVTPRP,-0.0435
14,RRIRFRPPRLPRPRPRPHWIPRP,-0.151
15,RRIRKRPPRLPRPRPRPTCHPRP,0.169
16,RRIRPRPPRLPRPRPRPNDKPRP,-0.52
17,RRIRERPPRLPRPRPRPFQSPRP,-0.00776
18,RRIRIRPPRLPRPRPRPFELPRP,-0.138
19,RRIRRRPPRLPRPRPRPNCGPRP,0.315
20,RRIRFRPPRLPRPRPRPWVLPRP,-0.0735

row,Sequence,shrunken log2 fold change
1,RRIRSRPPRLPRPRPRPGEVPRP,0.223
2,RRIRTRPPRLPRPRPRPELQPRP,-0.0178
3,RRIRKRPPRLPRPRPRPHMEPRP,0.0155
4,RRIRGRPPRLPRPRPRPWYLPRP,-0.575
5,RRIRDRPPRLPRPRPRPWIVPRP,0.0145
6,RRIRVRPPRLPRPRPRPIHWPRP,-0.131
7,RRIRHRPPRLPRPRPRPHFIPRP,-0.499
8,RRIRQRPPRLPRPRPRPYPPPRP,-0.357
9,RRIRCRPPRLPRPRPRPCPEPRP,1.16
10,RRIRTRPPRLPRPRPRPPISPRP,0.075
11,RRIRVRPPRLPRPRPRPLTWPRP,-0.195
12,RRIRARPPRLPRPRPRPDEAPRP,1.12
13,RRIRPRPPRLPRPRPRPFHSPRP,-0.153
14,RRIRDRPPRLPRPRPRPYSQPRP,-0.0305
15,RRIRIRPPRLPRPRPRPEHCPRP,0.0755
16,RRIRWRPPRLPRPRPRPFSMPRP,-0.0921
17,RRIRKRPPRLPRPRPRPAGQPRP,0.0284
18,RRIRQRPPRLPRPRPRPGNEPRP,0.177
19,RRIRPRPPRLPRPRPRPDRMPRP,-0.234
20,RRIRSRPPRLPRPRPRPGHAPRP,0.205

row,Sequence,shrunken log2 fold change
1,RRIRNRPPRLPRPRPRPWYRPRP,-0.117
2,RRIRERPPRLPRPRPRPWHSPRP,-0.252
3,RRIRPRPPRLPRPRPRPPYRPRP,0.103
4,RRIRDRPPRLPRPRPRPQPCPRP,-0.0957
5,RRIRNRPPRLPRPRPRPFPAPRP,-0.0844
6,RRIRHRPPRLPRPRPRPKPAPRP,0.0168
7,RRIRYRPPRLPRPRPRPTWRPRP,0.104
8,RRIRDRPPRLPRPRPRPHKDPRP,-0.239
9,RRIRHRPPRLPRPRPRPYQKPRP,-0.01
10,RRIRQRPPRLPRPRPRPCHWPRP,0.018
11,RRIRFRPPRLPRPRPRPHDWPRP,0.0906
12,RRIRCRPPRLPRPRPRPKQGPRP,0.261
13,RRIRKRPPRLPRPRPRPACKPRP,0.0609
14,RRIRDRPPRLPRPRPRPHQQPRP,-0.0346
15,RRIRMRPPRLPRPRPRPHVPPRP,0.107
16,RRIRARPPRLPRPRPRPNAMPRP,0.272
17,RRIRVRPPRLPRPRPRPQCGPRP,-0.0769
18,RRIRWRPPRLPRPRPRPYPTPRP,-0.281
19,RRIRCRPPRLPRPRPRPDRVPRP,-0.112
20,RRIRMRPPRLPRPRPRPDIDPRP,0.467
